Results reported in the Human Domainome abundance scans (Beltran et al. 2025).

B1: Lysine-specific demethylase 5C, residues 319 to 373; numbered along this chain, P41229 (parent)
chain: AQFIESYVCRMCSRGDEDDKLLLCDGCDDNYHIFCLLPPLPEIPKGVWRCPKCVM

Variants of: B1
Assay: abundance fitness (aPCA) (normalised: wild type 0, dead -1); higher = more abundant; growth selection in yeast, the domain comes from the species named
Conditions: Homo sapiens

Abundance fitness: each site, then its substitutions
C27: V -0.752 | R -0.759 | W -1.06 | Y -0.779 | G -0.825 | M -0.507 | H -0.905 | T -0.694 | N -0.806 | Q -0.522 | D -0.646
D28: A 0.092 | N 0.046 | L -0.294 | E -0.102 | S 0.148 | K -0.516 | C -0.359 | V -0.527 | W -0.244 | T -0.494 | P 0.259 | R 0.225 | I 0.327 | M -0.411
E17: Q -0.064 | N 0.257 | Y -0.285 | I -0.052 | G 0.023 | C 0.261 | T 0.087 | A 0.123 | H -0.245 | W -0.176 | F -0.062 | K -0.122 | V 0.22 | D 0.078 | S -0.052 | P -0.1
R14: S 0.188
F34: E 0.021 | R 0.067 | S -0.029 | A -0.162 | K 0.28 | G 0.046 | D -0.149 | P -0.291 | M -0.165 | Q -0.053 | H -0.135 | Y 0.191 | V -0.078 | L -0.157 | T 0.039 | W -0.087 | N 0.095
D16: C -0.115 | E -0.072 | A -0.063 | Y -0.115 | N 0.131 | S 0.104 | F 0.277 | K -0.265 | M 0.086 | T -0.182 | G 0.085 | I 0.089 | V -0.029 | Q -0.16 | R -0.026 | W -0.351
I33: L -0.496 | R -0.381 | K -0.423
L21: R -0.221 | P -0.683 | C -0.304 | F -0.078 | S -0.605 | A -0.426 | V -0.348 | N -0.366 | M -0.167 | D -0.87 | Q -0.353 | T -0.164 | Y -0.338 | I -0.044 | E -0.531 | H -0.458
Y31: K -0.702 | C -0.514 | S -0.93 | T -0.678 | P -0.776 | A -0.476 | Q -0.727 | W -0.364 | D -0.776 | R -0.641 | M -0.074 | V -0.113 | F -0.163 | E -0.538 | I -0.261 | N -0.679 | L -0.589
D25: L -0.381 | S -0.062 | G -0.081 | C -0.274 | P -0.355 | I -0.224 | V -0.009 | E -0.246 | T -0.016 | F -0.394 | A 0.158 | W -0.383 | Y -0.44 | N -0.293 | R -0.058 | K -0.199 | Q -0.218 | M -0.419
H32: N -0.672 | F -0.697 | T -0.898 | A -0.756 | S -0.984 | P -0.853 | Y -0.972 | G -1.01 | I -0.859 | C -0.677 | W -0.881 | R -0.675 | Q -0.756 | V -0.723 | E -0.945 | K -0.97 | M -1.02
C24: Y -0.812
G15: S 0.155 | Q -0.124 | L -0.113 | D -0.058 | V -0.025 | T 0.029 | N -0.231 | A -0.037 | E 0.049 | M -0.142 | P 0.04 | F -0.008 | Y -0.027 | K 0.086 | W -0.169 | I -0.065 | R 0.035 | C 0.167 | H -0.391
C12: Y -0.87
